± gives the uncertainty stated by the source.
Assay: self-splicing fitness, log relative to wild type (ln ratio); higher = more splicing; Tetrahymena group I intron in knt gene, E. coli kanamycin selection, DiMSum; sequences stand for … in CUCUCU…GGAGGGAAAAGUUAUCAGGCAUGCACCUGGUAGCUAGUCUUUAAACCAAUAGAUUGCAUCGGUUUAAAAGGCAAGACCGUCAAAUUGCGGGAAAGGGGUCAACAGCCGUUCAGUACCAAGUCUCAGGGGAAACUUUGAGAUGGCCUUGCAAAGGGUAUGGUAAUAAGCUGACGGACAUGGUCCUAACCACGCAGCCAAGUCCUAAGUCAACAGAUCUUCUGUUGAUAUGGAUGCAGUUCACAGACUAAAUGUCGGUCGGGGAAGAUGUAUUCUUCUCAUAAGAUAUAGUCGGACCUCUCCUUAAUGGGAGCUAGCGGAUGAAGUGAUGCAACACUGGAGCCGCUGGGAACUAAUUUGUAUGCGAAAGUAUAUUGAUUAGUUUUGGAGUACUCGUGGUCG
In short: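 Fitness was computed with DiMSum as the error-weighted combination of replicate fold changes, kanamycin versus none, each normalised to wild type. The library randomised all eight intron nucleotides of the P1ex region, with the intron placed in the knt kanamycin-resistance gene on pET-22b(+) in E. coli BL21(DE3). Six replicate transformations were grown overnight at 37°C or 30°C on LB agar with or without 25 μg/mL kanamycin, plus 100 μg/mL carbenicillin, 50 μM IPTG and 0.2% rhamnose. Pooled colonies were amplicon-sequenced on an Illumina HiSeq 2500.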

Sequence | self-splicing fitness (ln) (30 °C) | self-splicing fitness (ln) (37 °C)
CUUCAGCAAUAUUACGCGUG | -0.775 ± 0.08 | -0.978 ± 0.1
CUUCAGCAAUAUUACGGAGG | -3.09 ± 0.21 | -2.09 ± 0.26
CUUCAGCAAUAUUACGGCAU | -2.78 ± 0.17 | -2.1 ± 0.2
CUUCAGCAAUAUUACGGGGC | -2.93 ± 0.22 | -2.21 ± 0.34
CUUCAGCAAUAUUACGGUGG | -2.39 ± 0.12 | -1.18 ± 0.15
CUUCAGCAAUAUUACGGUUC | -3.39 ± 0.2 | -1.69 ± 0.18
CUUCAGCAAUAUUACGUAAG | -0.469 ± 0.084 | -0.514 ± 0.1
CUUCAGCAAUAUUACGUACU | -4.13 ± 0.19 | -2.8 ± 0.19
CUUCAGCAAUAUUACGUCUC | -3.17 ± 0.2 | -3.03 ± 0.2
CUUCAGCAAUAUUACGUGGG | -3.96 ± 0.16 | -2.38 ± 0.19
CUUCAGCAAUAUUACGUGUA | -3.11 ± 0.13 | -3.22 ± 0.21
CUUCAGCAAUAUUACGUUGC | -4.23 ± 0.3 | -3.04 ± 0.25
CUUGAGCAAUAUUACGAACU | -4.03 ± 0.46 | -2.09 ± 0.32
CUUGAGCAAUAUUACGAAGU | -3.67 ± 0.33 | -3.38 ± 0.35
CUUGAGCAAUAUUACGACAG | -1.19 ± 0.1 | -0.98 ± 0.14
CUUGAGCAAUAUUACGAGAU | -3.68 ± 0.37 | -0.585 ± 0.15
CUUGAGCAAUAUUACGAUAC | -3.57 ± 0.42 | 
CUUGAGCAAUAUUACGCACC |  | -1.68 ± 0.4
CUUGAGCAAUAUUACGCGGC | -2.63 ± 0.27 | -1.43 ± 0.43
CUUGAGCAAUAUUACGCGUA | -3.18 ± 0.35 | -2.31 ± 0.27
CUUGAGCAAUAUUACGCUAG | -3.17 ± 0.28 | -2.48 ± 0.27
CUUGAGCAAUAUUACGCUCA | -1.12 ± 0.32 | -2.33 ± 0.29
CUUGAGCAAUAUUACGCUUG |  | -1.83 ± 0.41
CUUGAGCAAUAUUACGGCAC | -2.5 ± 0.34 | -2.71 ± 0.39
CUUGAGCAAUAUUACGGGUA | -3.78 ± 0.33 | -2.53 ± 0.24

Sequence | self-splicing fitness (ln) (30 °C) | self-splicing fitness (ln) (37 °C)
CUUGAGCAAUAUUACGGGUU | -2.91 ± 0.32 | -2.92 ± 0.28
CUUGAGCAAUAUUACGGUUG | -2.28 ± 0.097 | -1.95 ± 0.14
CUUGAGCAAUAUUACGUGGA | -2.88 ± 0.24 | -3.25 ± 0.33
CUUGAGCAAUAUUACGUUAC | -3 ± 0.33 | -2.44 ± 0.32
CUUGAGCAAUAUUACGUUGA | -3.17 ± 0.27 | -1.97 ± 0.22
CUUUAGCAAUAUUACGACGU | -3.69 ± 0.38 | -1.86 ± 0.3
CUUUAGCAAUAUUACGAUCG | 0.191 ± 0.17 | 0.476 ± 0.22
CUUUAGCAAUAUUACGAUCU | -3.2 ± 0.36 | -2.48 ± 0.45
CUUUAGCAAUAUUACGCAAA | -2.51 ± 0.21 | -1.34 ± 0.2
CUUUAGCAAUAUUACGCCGU | -2.68 ± 0.41 | 
CUUUAGCAAUAUUACGCGGG | -3.35 ± 0.3 | -2.31 ± 0.32
CUUUAGCAAUAUUACGCUGU | -2.75 ± 0.25 | -2.35 ± 0.37
CUUUAGCAAUAUUACGGAGA | -2.74 ± 0.49 | 
CUUUAGCAAUAUUACGGAUA | -3.21 ± 0.42 | -2.7 ± 0.34
CUUUAGCAAUAUUACGGGCU |  | -1.66 ± 0.41
CUUUAGCAAUAUUACGGGGG | -4.05 ± 0.46 | -2.65 ± 0.45
CUUUAGCAAUAUUACGGUAC | -2.49 ± 0.28 | -3.08 ± 0.47
CUUUAGCAAUAUUACGGUCA | -2.41 ± 0.25 | -3.28 ± 0.35
CUUUAGCAAUAUUACGUAGC |  | -1.6 ± 0.49
CUUUAGCAAUAUUACGUCCA | -3.2 ± 0.41 | -0.864 ± 0.24
CUUUAGCAAUAUUACGUCUU | -3.41 ± 0.26 | -3.28 ± 0.33
CUUUAGCAAUAUUACGUGAA | -3.77 ± 0.35 | -2.65 ± 0.28
CUUUAGCAAUAUUACGUGGG | -3.1 ± 0.17 | -2.96 ± 0.27
CUUUAGCAAUAUUACGUGUU | -3.49 ± 0.18 | -3.77 ± 0.22
CUUUAGCAAUAUUACGUUAA | -2.87 ± 0.27 | 

Sequence | self-splicing fitness (ln) (30 °C) | self-splicing fitness (ln) (37 °C)
CUUUAGCAAUAUUACGUUAG | -2.49 ± 0.18 | -2.32 ± 0.26
CUUUAGCAAUAUUACGUUUU | -3.27 ± 0.3 | -2.39 ± 0.35
GAAAAGCAAUAUUACGAAGA | -2.88 ± 0.18 | -1.34 ± 0.13
GAAAAGCAAUAUUACGACUA | 0.0422 ± 0.14 | 0.403 ± 0.15
GAAAAGCAAUAUUACGCCCA | -0.288 ± 0.11 | -0.385 ± 0.19
GAAAAGCAAUAUUACGCCGA | -1.01 ± 0.2 | -0.824 ± 0.23
GAAAAGCAAUAUUACGCUCA | -0.514 ± 0.11 | 0.0911 ± 0.14
GAAAAGCAAUAUUACGCUUU | -3.39 ± 0.22 | -2.39 ± 0.26
GAAAAGCAAUAUUACGGCCG | -0.796 ± 0.087 | -0.537 ± 0.12
GAAAAGCAAUAUUACGGCGG | -1.86 ± 0.1 | -1.59 ± 0.1
GAAAAGCAAUAUUACGGCUA | -0.156 ± 0.082 | 0.451 ± 0.082
GAAAAGCAAUAUUACGGGAA | -2.07 ± 0.14 | -0.425 ± 0.13
GAAAAGCAAUAUUACGGGCU | -1.37 ± 0.15 | -1.72 ± 0.21
GAAAAGCAAUAUUACGGUGC | -2.02 ± 0.12 | -2.05 ± 0.18
GAAAAGCAAUAUUACGUAAC | -2.11 ± 0.18 | -1.38 ± 0.17
GAAAAGCAAUAUUACGUAGA | -0.772 ± 0.076 | -1.77 ± 0.13
GAAAAGCAAUAUUACGUAUU | -3.24 ± 0.13 | -2.16 ± 0.11
GAAAAGCAAUAUUACGUGGG | -3.69 ± 0.13 | -1.29 ± 0.11
GAAAAGCAAUAUUACGUUGA | -2.87 ± 0.15 | -1.24 ± 0.1
GAAAAGCAAUAUUACGUUUG | -2.71 ± 0.097 | -2.02 ± 0.15
GAACAGCAAUAUUACGAAAG | -3.62 ± 0.18 | -1.58 ± 0.13
GAACAGCAAUAUUACGAAGU | -2.04 ± 0.12 | -0.944 ± 0.15
GAACAGCAAUAUUACGAAUC | -1.76 ± 0.08 | -1.9 ± 0.13
GAACAGCAAUAUUACGAGAC | -2.13 ± 0.22 | -1.21 ± 0.18
GAACAGCAAUAUUACGCACA | -0.348 ± 0.082 | -0.338 ± 0.094

Sequence | self-splicing fitness (ln) (30 °C) | self-splicing fitness (ln) (37 °C)
GAACAGCAAUAUUACGCAGU | -3.37 ± 0.11 | -2.5 ± 0.13
GAACAGCAAUAUUACGCCGA | -0.857 ± 0.12 | -0.581 ± 0.1
GAACAGCAAUAUUACGCGAA | -0.881 ± 0.086 | -0.124 ± 0.12
GAACAGCAAUAUUACGCGCC | -0.957 ± 0.13 | -0.851 ± 0.15
GAACAGCAAUAUUACGCGCU | -0.914 ± 0.088 | -0.133 ± 0.11
GAACAGCAAUAUUACGCGGA | -1.94 ± 0.082 | -0.737 ± 0.075
GAACAGCAAUAUUACGCUCU | -1.37 ± 0.17 | -0.466 ± 0.15
GAACAGCAAUAUUACGGAAG | -3.32 ± 0.14 | -1.73 ± 0.16
GAACAGCAAUAUUACGGACU | -1.28 ± 0.085 | -0.212 ± 0.097
GAACAGCAAUAUUACGGGAU | -2.26 ± 0.084 | -1.05 ± 0.079
GAACAGCAAUAUUACGGGUG | -1.88 ± 0.072 | -1.59 ± 0.092
GAACAGCAAUAUUACGGUGG | -2 ± 0.095 | -1.19 ± 0.1
GAACAGCAAUAUUACGGUGU | -2.02 ± 0.066 | -0.373 ± 0.069
GAACAGCAAUAUUACGUACC | -0.94 ± 0.27 | 0.0452 ± 0.3
GAACAGCAAUAUUACGUUAG | -0.954 ± 0.047 | -0.969 ± 0.067
GAACAGCAAUAUUACGUUCA | -2.31 ± 0.1 | -1.49 ± 0.087
GAACAGCAAUAUUACGUUCC | -2.88 ± 0.36 | 
GAACAGCAAUAUUACGUUCG | -2.12 ± 0.099 | -1.38 ± 0.096
GAACAGCAAUAUUACGUUUA | -0.588 ± 0.07 | -0.031 ± 0.078
GAAGAGCAAUAUUACGACAG | -3.36 ± 0.29 | -2.76 ± 0.28
GAAGAGCAAUAUUACGACUC | -0.32 ± 0.095 | -0.113 ± 0.11
GAAGAGCAAUAUUACGACUG | -3.86 ± 0.39 | -1.88 ± 0.16
GAAGAGCAAUAUUACGAUAU | -4.88 ± 0.36 | -1.06 ± 0.14

From the supplement of paper PMC7877785
